The supplement of paper PMC9732359
± gives the uncertainty stated by the source.

Test: protein stability index of a GFP-peptide fusion (yeast GPS) (PSI 1-4); higher = more stable; sorted into four equal gates, so the index is relative within each strain
Details: san1∆
How it was run: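 Yeast carrying a pooled library were grown to mid-log phase in leucine-free medium. Each library plasmid expresses Cherry and has a tiled 17-residue yeast protein peptide fused downstream of GFP. Cells were sorted into four equal gates by GFP/Cherry ratio, and plasmids from each gate were PCR-amplified, Illumina-sequenced and assigned to strains by barcode. Summing, across gates, the read frequency times the gate number gave each peptide's protein stability index.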

NPSNTPDKDYLLSIPIS [FAS1] and NQEDLFELVHHFFQIDG [YML103C/NUP188] are within error of each other in protein stability index: 2.88 ± 0.054 for the first, 2.85 ± 0.081 for the second.

Going from NQLDGFDDRGDVKVIMA [RPT2] to NQNSDMKKKLELISYRN [SRB8], the protein stability index falls from 3.09 ± 0.1 to 2.93 ± 0.051.

First: NQVTDSSQLNKLTDEQS [SIR3]
Second: NRAEGPEELARILQQLK [RGR1]
The protein stability index of the first is lower: 2.82 ± 0.07 for the first, 3.19 ± 0.12 for the second.

First: NRDRSFQLLEPLSTYNK [PGD1]
Second: NREAATKEVESNIITKS [DIS3]
The protein stability index of the first is higher: 2.93 ± 0.053 for the first, 2.79 ± 0.074 for the second.

Compared with NRRLVYSRILKSMGRKC [YCG1], NRSAYDSKNTPNVFDKD [YDL088C/ASM4] is higher in protein stability index: 1.3 ± 0.2 for the first, 2.9 ± 0.074 for the second.

First: NRSWDHAYNITFNNQDK [RPO31]
Second: NRWHSESWANQLTVCGA [FAS2]
The protein stability index of the first is higher: 2.7 ± 0.071 for the first, 1.8 ± 0.086 for the second.

NSAQNNSTTSGGLFGNK [YGR119C/NUP57] and NSDDCMMEEIINVVIKA [ECM29] are within error of each other in protein stability index: 3.2 ± 0.073 for the first, 3.14 ± 0.11 for the second.

Going from NSDLEGKIRGVEDDLVT [SMC2] to NSEKFVFLLTTRAGGLG [ISW2], the protein stability index falls from 3.15 ± 0.067 to 1.11 ± 0.11.

First: NSFKLFKAEKLQIVNQL [RPC17]
Second: NSFTKGNVFSPIDNNII [SNU114]
The protein stability index of the first is lower: 1.85 ± 0.16 for the first, 2.83 ± 0.081 for the second.

Compared with NSGVGSAKGPEIIPLQD [MED6], NSKVDMKYDIFAKFIHH [IRR1] is lower in protein stability index: 3.16 ± 0.071 for the first, 2.31 ± 0.071 for the second.

Compared with NSKVNKLNIETMRKISS [DSN1], NSLTKYPDLKAFHNNLK [MED1] is higher in protein stability index: 2.13 ± 0.12 for the first, 2.89 ± 0.092 for the second.

First: NSLTVDGNNANYIYAGY [RPN14]
Second: NSNPTSNVFGSNNSTTN [YJL041W/NSP1]
The protein stability index of the first is lower: 2.42 ± 0.092 for the first, 3.16 ± 0.055 for the second.

First: NSPNYFVAKLAAQIFGS [COR1]
Second: NSQTVSGTPITQTESKK [SNF2]
The protein stability index of the first is lower: 1.68 ± 0.08 for the first, 2.7 ± 0.053 for the second.

Going from NSSMRYGYWFDCRMGNF [AAR2] to NSTTSGGLFGNKVGSTG [YGR119C/NUP57], the protein stability index rises from 1.83 ± 0.12 to 3.21 ± 0.071.

Compared with NSYWLIILLGVLEDCRH [ITC1], NTCYLNATLQALYRVND [UBP6] is higher in protein stability index: 2.44 ± 0.083 for the first, 2.69 ± 0.063 for the second.

Going from NTGPSTGGLFGAKPAGS [YGL172W/NUP49] to NTIGSVHGKAPMLMANN [SSN3], the protein stability index falls from 2.67 ± 0.17 to 1.48 ± 0.19.

Going from NTNNNDTIATSATPNAA [GAL11] to NTSLPPSILEDSLENNE [FAS1], the protein stability index rises from 2.59 ± 0.044 to 3.11 ± 0.095.

NTTLQDNVSFIEEAKSI [REC8] and NVDRLYKLNVRSNDPQS [NUT2] are within error of each other in protein stability index: 3.23 ± 0.064 for the first, 3.27 ± 0.065 for the second.

Compared with NVEKYPTFVEFILIPLY [SNU114], NVELLNCIRILADKLEN [YIL149C/MLP2] is lower in protein stability index: 2.04 ± 0.069 for the first, 1.06 ± 0.13 for the second.

Going from NVESAGAMTPEEIFFKS [RPC40] to NVIKTGIRIISLTYKKI [RPN3], the protein stability index falls from 3.17 ± 0.054 to 1.99 ± 0.12.

Going from NVISSKDWELEARFWHL [YDL116W/NUP84] to NVKEEETVAKSKNAERK [RPS8A], the protein stability index falls from 3.43 ± 0.066 to 3.215 ± 0.022.

First: NVLNQIHQILLPTNPTL [CSE2]
Second: NVVIDEAVEIPVNSADG [SME1]
The protein stability index of the first is lower: 2.14 ± 0.05 for the first, 3.24 ± 0.041 for the second.

First: NVVLVTNDRLNREAATK [DIS3]
Second: NVVVKWQGKPVFIRHRT [RIP1]
The protein stability index of the first is lower: 1.89 ± 0.21 for the first, 3.41 ± 0.07 for the second.

First: NWWHSEFEIPVSFNGFK [BRR2]
Second: NYESVFTYNKFLLNQNK [YIL149C/MLP2]
The protein stability index of the first is lower: 1.14 ± 0.17 for the first, 2.24 ± 0.1 for the second.

Going from NYSSLPSPYKTTVYRYS [YAR002W/NUP60] to PAALDGLMKSYKIPKVM [ESC2], the protein stability index rises from 1.71 ± 0.057 to 2.85 ± 0.061.

Compared with PAANESEVANNGLIISW [RRP42], PAFSFGTKSNEKKDSGS [YJL041W/NSP1] is higher in protein stability index: 1.13 ± 0.28 for the first, 3.44 ± 0.044 for the second.

Going from PAGMNETPKSNNSLSYH [ITC1] to PAINYTKLKNAVQNESV [QCR2], the protein stability index falls from 2.56 ± 0.14 to 2.2 ± 0.092.

PAPSIPSTGFKFSLPFE [YLR335W/NUP2] and PAPSKPVIDYELKEITS [BRR2] are within error of each other in protein stability index: 2.92 ± 0.088 for the first, 2.97 ± 0.068 for the second.

First: PARSSSLRSNVVVAETS [YAR002W/NUP60]
Second: PAWFNNPRKRAIPNSII [YMR153W/NUP53]
The protein stability index of the first is lower: 2.19 ± 0.058 for the first, 3.21 ± 0.079 for the second.

Compared with PCNNRGKHSIGLIWYLL [RPS0A], PDMMVDSFTMPNISHSN [SNF2] is higher in protein stability index: 2.49 ± 0.058 for the first, 2.72 ± 0.087 for the second.

Compared with PDTAIDSQMDEASGTPD [GRR1], PDTKISSAAILGLGIAF [RPN1] is lower in protein stability index: 2.89 ± 0.064 for the first, 2.49 ± 0.087 for the second.

First: PELLDSLAILGMNLLSN [SWI1]
Second: PENLQVTSEKYPFDKLE [BRR2]
The protein stability index of the first is lower: 2.05 ± 0.079 for the first, 2.93 ± 0.064 for the second.

Going from PEVVELCQKSPVMADLN [FAS2] to PFDKKSNSALFRAVGEG [FAS1], the protein stability index rises from 2.48 ± 0.11 to 2.85 ± 0.052.

PFDMGGYFIINGSEKVL [RPB2] and PFMSYSPQLTAIIGLKS [SNF12] are within error of each other in protein stability index: 2.56 ± 0.27 for the first, 2.3 ± 0.078 for the second.

Going from PFNFTVTLFQMAILLLY [CDC53] to PFPQYPAGMNETPKSNN [ITC1], the protein stability index rises from 1.41 ± 0.11 to 2.75 ± 0.087.

Going from PGGASGLGVLTHRNKDG [FAS1] to PGGYFIVNGTEKVILVQ [RET1], the protein stability index falls from 3.24 ± 0.076 to 1.28 ± 0.13.

PGIISITSLQDSSSQCI [YMR129W/POM152] and PGLEFLDDTTIPVGLMA [MCD1] are within error of each other in protein stability index: 3 ± 0.066 for the first, 3.03 ± 0.041 for the second.

Compared with PGRIDRKILFENPDLST [RPT2], PGTGKTLLARAVAHHTD [RPT6] is lower in protein stability index: 3.35 ± 0.14 for the first, 1.53 ± 0.11 for the second.

First: PGVNREINSEMCHIVRK [GRR1]
Second: PGWDFETEEIDPELLRS [RPL5]
The protein stability index of the first is higher: 3.35 ± 0.059 for the first, 3.11 ± 0.057 for the second.

Compared with PIEVDEELLQLFLNNFV [IRR1], PIKEAKIKHGSVTEIPL [YMR129W/POM152] is lower in protein stability index: 2.97 ± 0.054 for the first, 2.6 ± 0.06 for the second.

Compared with PIMLRSKNCYLSEATES [RPB2], PINGNEAESQWYIEKVI [CSI1] is higher in protein stability index: 1.1 ± 0.15 for the first, 3.09 ± 0.1 for the second.

Compared with PINLHPSKLVITKLHLD [RPL26A], PIQSKVFHAAFEGDSNM [BRR2] is higher in protein stability index: 1.9 ± 0.062 for the first, 2.92 ± 0.063 for the second.

PITASMAAALPNPTPSM [PGD1] and PITNKERSLAVKYINFG [RPC31] are within error of each other in protein stability index: 2.55 ± 0.073 for the first, 2.65 ± 0.084 for the second.

PIVEDRRVKQLDDITDS [SIR4] and PIVLLNTLRKCYPQFAE [UBP6] are within error of each other in protein stability index: 1.31 ± 0.21 for the first, 1.14 ± 0.16 for the second.

Compared with PIYYQKLKHMVLDKMHA [RET1], PKATSSAGAVFKSSVEM [YOR098C/NUP1] is higher in protein stability index: 1.62 ± 0.094 for the first, 2.69 ± 0.1 for the second.

PKDSSSTFREWKNLVLK [YJR042W/NUP85] and PKEEEPILAPSVKDYRP [RPS3] are within error of each other in protein stability index: 3 ± 0.065 for the first, 3.04 ± 0.052 for the second.

First: PKIETNVYVGMTDMQIQ [ISW2]
Second: PKNVPTSKWLNSITSGG [YDL116W/NUP84]
The protein stability index of the first is higher: 3.04 ± 0.069 for the first, 2.23 ± 0.14 for the second.

Compared with PKPLKFLRPTYPDLCSI [RPN1], PKSGIDIFVYLTYDKDL [MTR3] is lower in protein stability index: 2.4 ± 0.06 for the first, 1.78 ± 0.11 for the second.

PKSLNSNININVNNNNI [SWI1] and PKTELTKGDSTPVQPDL [YAR002W/NUP60] are within error of each other in protein stability index: 3.04 ± 0.066 for the first, 3.08 ± 0.072 for the second.

Compared with PLIIVSDGQSRVKDIHL [RET1], PLIKKIKYEPRFEKAVK [SMC3] is lower in protein stability index: 3.05 ± 0.2 for the first, 2.53 ± 0.13 for the second.

Same assay, conditions: ubr1∆

Sequence NPRKRKASVLEISPQDS [GAL11] has a protein stability index of 3.1 ± 0.13.
